Measurements published in article PMC8440931, “Physical and Functional Interaction of Mitochondrial Single-Stranded DNA-Binding Protein and the Catalytic Subunit of DNA Polymerase Gamma” (Frontiers in Genetics, 2021).
One block for each molecule: values may come before it.

B1: catalytic subunit of mitochondrial DNA polymerase gamma (Pol γα) (enzyme, human, UniProt P54098 1-1239, looked up)
chain: MSRLLWRKVAGATVGPGPVPAPGRWVSSSVPASDPSDGQRRRQQQQQQQQQQQQQPQQPQVLSSEGGQLRHNPLDIQMLSRGLHEQIFGQGGEMPGEAAVRRSVEHLQKHGLWGQPAVPLPDVELRLPPLYGDNLDQHFRLLAQKQSLPYLEAANLLLQAQLPPKPPAWAWAEGWTRYGPEGEAVPVAIPEERALVFDVEVCLAEGTCPTLAVAISPSAWYSWCSQRLVEERYSWTSQLSPADLIPLEVPTGASSPTQRDWQEQLVVGHNVSFDRAHIREQYLIQGSRMRFLDTMSMHMAISGLSSFQRSLWIAAKQGKHKVQPPTKQGQKSQRKARRGPAISSWDWLDISSVNSLAEVHRLYVGGPPLEKEPRELFVKGTMKDIRENFQDLMQYCAQDVWATHEVFQQQLPLFLERCPHPVTLAGMLEMGVSYLPVNQNWERYLAEAQGTYEELQREMKKSLMDLANDACQLLSGERYKEDPWLWDLEWDLQEFKQKKAKKVKKEPATASKLPIEGAGAPGDPMDQEDLGPCSEEEEFQQDVMARACLQKLKGTTELLPKRPQHLPGHPGWYRKLCPRLDDPAWTPGPSLLSLQMRVTPKLMALTWDGFPLHYSERHGWGYLVPGRRDNLAKLPTGTTLESAGVVCPYRAIESLYRKHCLEQGKQQLMPQEAGLAEEFLLTDNSAIWQTVEELDYLEVEAEAKMENLRAAVPGQPLALTARGGPKDTQPSYHHGNGPYNDVDIPGCWFFKLPHKDGNSCNVGSPFAKDFLPKMEDGTLQAGPGGASGPRALEINKMISFWRNAHKRISSQMVVWLPRSALPRAVIRHPDYDEEGLYGAILPQVVTAGTITRRAVEPTWLTASNARPDRVGSELKAMVQAPPGYTLVGADVDSQELWIAAVLGDAHFAGMHGCTAFGWMTLQGRKSRGTDLHSKTATTVGISREHAKIFNYGRIYGAGQPFAERLLMQFNHRLTQQEAAEKAQQMYAATKGLRWYRLSDEGEWLVRELNLPVDRTEGGWISLQDLRKVQRETARKSQWKKWEVVAERAWKGGTESEMFNKLESIATSDIPRTPVLGCCISRALEPSAVQEEFMTSRVNWVVQSSAVDYLHLMLVAMKWLFEEFAIDGRFCISIHDEVRYLVREEDRYRAALALQITNLLTRCMFAYKLGLNDLPQSVAFFSAVDIDRCLRKEVTMDCKTPSNPTGMERRYGIPQGEALDIYQIIELTKGSLEKRSQPGP
B3: biotinylated mtSSB variant lacking nine residues of loop 2.3 (Δ67-75), BTN-mtSSB_(l2.3) (natural protein, human, UniProt Q04837 17-148, looked up)
chain: ESETTTSLVLERSLNRVHLLGRVGQDPVLRQVEGKNPVTIFSLATNEMWRGDVSQKTTWHRISVFRPGLRDVAYQYVKKGSRIYLEGKIDYGEYMDKNNVRRQATTIIADNIIFLSDQTKEKE
modifications: biotin (conjugated; site not stated)
notes: also called loop 2.3-deficient mtSSB; source: purified recombinant protein; details in the Supplementary Materials

Tests used:
Pol γβ (Homo sapiens) = Pol γβ (Homo sapiens) (UniProt Q9UHN1); settings: cited from earlier work
mtSSB (wild type) = molecular target: T1, mtSSB (wild type) (UniProt Q04837 17-148); test: BLI; 4 mM Mg2+; equilibrium responses of mass transfer fit, non-1:1 binding; BLI: 50 mM Tris-HCl pH 8.0, 10 mM KCl, 4 mM MgCl2, 0.4 mg/ml BSA, 10 mM DTT, 30 C; settings: protein: recombinant; chain copies: 4; label: 5'-biotin (immobilized on streptavidin sensor); single strand
T1 sequence: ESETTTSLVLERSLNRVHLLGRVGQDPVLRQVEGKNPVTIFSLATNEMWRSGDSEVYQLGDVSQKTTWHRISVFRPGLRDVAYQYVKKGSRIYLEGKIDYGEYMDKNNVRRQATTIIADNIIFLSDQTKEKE

[1] = molecular target: B3; test: cell-based or functional assay
[2] = molecular target: B1; test: BLI; BTN-mtSSB or BTN-mtSSB_(l2.3) (600 nM) saturated on streptavidin sensors; Pol γα as analyte at increasing concentrations; Ac buffer: 50 mM Tris-HCl pH 8.0, 10 mM KCl, 4 mM MgCl2, 0.4 mg/ml BSA, 10 mM DTT; 30°C, 1,000 rpm; 1:1 interaction model; settings: both partners purified

Chain of Pol γβ (Homo sapiens) (Q9UHN1 2-485): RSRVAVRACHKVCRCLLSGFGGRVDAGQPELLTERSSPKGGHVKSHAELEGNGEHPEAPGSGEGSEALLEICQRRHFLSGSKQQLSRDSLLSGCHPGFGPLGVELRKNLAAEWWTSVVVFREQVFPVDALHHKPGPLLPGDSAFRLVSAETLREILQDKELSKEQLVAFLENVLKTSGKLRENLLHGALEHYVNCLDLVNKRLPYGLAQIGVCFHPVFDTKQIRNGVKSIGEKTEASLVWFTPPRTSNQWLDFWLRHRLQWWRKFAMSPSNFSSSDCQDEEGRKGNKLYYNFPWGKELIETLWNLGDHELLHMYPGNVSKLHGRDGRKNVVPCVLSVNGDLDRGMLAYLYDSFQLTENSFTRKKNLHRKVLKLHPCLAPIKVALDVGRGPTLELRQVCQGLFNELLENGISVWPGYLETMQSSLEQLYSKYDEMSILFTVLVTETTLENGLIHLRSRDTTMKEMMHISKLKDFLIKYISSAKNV

Molecule: Pol γα (from UniProt P54098)
Kd (Pol γβ (Homo sapiens)): 20 nM

Molecule: ATTATGAATTAATTTAATAATTTTTTTTTTTTTTTTTTTT (ssDNA, 5'-biotin) [BTN-ssDNA 40-mer]
Kd (mtSSB (wild type)): 2.3 nM

Molecule: B1
inhibition of primer extension by Pol γα on primer-template (15/59) DNA (mtSSB displacement assay), mtSSB_(l2.3) at 1:1 (~10%) and three-fold molar ratio to DNA template [1]: ~25%

Kd [2]: 48 nM
B2: biotinylated mitochondrial single-stranded DNA-binding protein (BTN-mtSSB), wild type (natural protein, human, UniProt Q04837 17-148, looked up)
chain: ESETTTSLVLERSLNRVHLLGRVGQDPVLRQVEGKNPVTIFSLATNEMWRSGDSEVYQLGDVSQKTTWHRISVFRPGLRDVAYQYVKKGSRIYLEGKIDYGEYMDKNNVRRQATTIIADNIIFLSDQTKEKE
modifications: biotin (conjugated; site not stated)
notes: also called mtSSB4; wild-type mtSSB; source: purified recombinant protein; details in the Supplementary Materials

Molecule: B3
Kd [2]: 26 nM
